# According to patent US20200392219A1, “EXTRACELLULAR VESICLES COMPRISING MEMBRANE-TETHERED TGF-BETA, COMPOSITIONS AND METHODS OF USE THEREOF” (TRUSTEES OF TUFTS COLLEGE, priority 2017, published 2020):
# B1: proteinase K: protease used with RNAse A to pre-treat EV (protein, UniProt P06873 106-384, looked up)
# Proteinase K: AAQTNAPWGLARISSTSPGTSTYYYDESAGQGSCVYVIDTGIEASHPEFEGRAQMVKTYYYSSRDGNGHGTHCAGTVGSRTYGVAKKTQLFGVKVLDDNGSGQYSTIIAGMDFVASDKNNRNCPKGVVASLSLGGGYSSSVNSAAARLQSSGVMVAVAAGNNNADARNYSPASEPSVCTVGASDRYDRRSSFSNYGSVLDIFGPGTSILSTWIGGSTRSISGTSMATPHVAGLAAYLMTLGKTTAASACRYIADTANKGDLSNIPFGTVNLLAYNNYQA
# B2: TGF-β3: recombinant human TGF-β3 (Sigma) (protein, UniProt P10600 301-412, looked up)
# Transforming growth factor …: ALDTNYCFRNLEENCCVRPLYIDFRQDLGWKWVHEPKGYYANFCSGPCPYLRSADTTHSTVLGLYNTLNPEASASPCCVPQDLEPLTILYYVGRTPKVEQLSNMVVKSCKCS
# B3: heparinase: heparinase III (Sigma), disrupts heparin sulfate side chains on beta-glycan (protein, UniProt Q59289 25-659, looked up)
# Heparin-sulfate lyase: QSSSITRKDFDHINLEYSGLEKVNKAVAAGNYDDAAKALLAYYREKSKAREPDFSNAEKPADIRQPIDKVTREMADKALVHQFQPHKGYGYFDYGKDINWQMWPVKDNEVRWQLHRVKWWQAMALVYHATGDEKYAREWVYQYSDWARKNPLGLSQDNDKFVWRPLEVSDRVQSLPPTFSLFVNSPAFTPAFLMEFLNSYHQQADYLSTHYAEQGNHRLFEAQRNLFAGVSFPEFKDSPRWRQTGISVLNTEIKKQVYADGMQFELSPIYHVAAIDIFLKAYGSAKRVNLEKEFPQSYVQTVENMIMALISISLPDYNTPMFGDSWITDKNFRMAQFASWARVFPANQAIKYFATDGKQGKAPNFLSKALSNAGFYTFRSGWDKNATVMVLKASPPGEFHAQPDNGTFELFIKGRNFTPDAGVFVYSGDEAIMKLRNWYRQTRIHSTLTLDNQNMVITKARQNKWETGNNLDVLTYTNPSYPNLDHQRSVLFINKKYFLVIDRAIGEATGNLGVHWQLKEDSNPVFDKTKNRVYTTYRDGNNLMIQSLNADRTSLNEEEGKVSYVYNKELKRPAFVFEKPKKNAGTQNFVSIVYPYDGQKAPEISIRENKGNDFEKGKLNLTLTINGKQQLVLVP
# B4: heat-inactivated heparinase: heat-inactivated heparinase (control) (protein, UniProt Q59289 25-659, looked up)
# Heparin-sulfate lyase: B3 Heparin-sulfate lyase
# modifications: heat-inactivated
# B5: RNase: RNAse A enzyme used to pre-treat EV (protein, UniProt P61823 27-150, looked up)
# Ribonuclease pancreatic: KETAAAKFERQHMDSSTSAASSSNYCNQMMKSRNLTKDRCKPVNTFVHESLADVQAVCSQKNVACKNGQTNCYQSYSTMSITDCRETGSSKYPNCAYKTTQANKHIIVACEGNPYVPVHFDASV
# Tested on: CD4+ T cells (ConA-stimulated PBMC)
# Assay: ConA mitogen-induced CD4+ T cell proliferation in CFSE-stained PBMC (PBMC responder/suppression assay)
# Assay type: cell-based, canine
# Settings: for effect of pre-treating WJ-MSC EV on their suppression of CD4+ T cell division: 0.1% Triton-X, 2 μg/ml RNAse A, proteinase K 30 min 37°C, heparinase 0.006 U/ml 3 hours, 10^4 EV:1 PBMC
# Protocol: Serum-free culture medium from canine Wharton's Jelly mesenchymal stem cells (WJ-MSC: CD44^+, CD90^+, CD34^−, CD45^−, MHCII^−, n=6 cell lines) was collected after 48 hours, and extracellular vesicles (WJ-EV) were isolated by differential centrifugation. WJ-EV output was assessed using single vesicle nanoparticle tracking analysis (NTA). CFSE-stained peripheral blood mononuclear cells (PBMC) were collected from healthy dogs (n=8), exposed to Concanavalin A mitogen (ConA; 5 μg/ml) and co-incubated with WJ-MSC (1:10) across transwell membrane (0.4 μm pore size) or with WJ-MSC EV (1:10^4)±10 μM SB431542 (TGFβR1 inhibitor) or TGF-β neutralizing (e.g., inhibiting) antibody (Ab) for 72 hours. Analysis of CFSE fluorescence using FlowJo (v7.6.5) yielded % CD4^+ cells that had undergone division (T-cell proliferation).
# PBMC responder assay: Twelve healthy adult purpose-bread Beagle dogs (5 neutered males, 7 spayed females) housed at the Laboratory Animal Medicine department at the Cummings School of Veterinary Medicine at Tufts University served as blood donors under an approved protocol. […] or WJ-MSC were tested in triplicate against a minimum of 3 different PBMC donor cell samples (see Figure legends for ‘n’ of each experiment). Healthy status was confirmed by clinical examination, and hematological and serum biochemical testing within six months of blood sampling. All dogs were fasted for 12 hours prior to peripheral blood sampling. Peripheral blood samples were taken via jugular venipuncture using a 21 gauge needle, and blood was immediately placed into an EDTA collection tube and rotated 1-2 times gently. Blood was diluted 1:1 with cold PBS or centrifuged (1300×g, 10 min) prior to dilution 1:2 in PBS, followed by density-gradient centrifugation using Ficoll-Paque (density 1.077; GE Healthcare Life Sciences) to harvest peripheral blood mononuclear cells (PBMC). PBMC were washed in RPMI (Life Technologies) supplemented with 10% heat-inactivated fetal bovine serum (Gibco), […] (Life Technologies), 100 μM β-mercaptoethanol (Sigma-Aldrich), 10,000 U/ml penicillin-streptomycin, 2 mM L-glutamine (Life Technologies), and 2.2 mg/mL of sodium bicarbonate (Thermo Fisher Scientific) (complete RPMI, ‘cRPMI’). For mitogen induced lymphocytes proliferation assays, PBMC were suspended in 1 ml cRPMI and 0.5 μof 10 mM carboxyfluorescein succinimidyl ester (CFSE, Thermo Fisher Scientific) and were incubated (10 min). For initial characterization of WJ-MSC effects on responder PBMC, PBMC were plated on a 24-well plate on the top of a 0.4 μm Transwell (Corning) across from the WJ-MSC in a 10:1 ratio (PBMC:MSC) in a total volume of 1 ml medium (n=3 technical replicates/sample). All plates were incubated at 37° C. in the dark for 72 hours prior to analysis.
# Dose-responses of TV MSC-EV: To investigate the dose response of PBMC to WJ-MSC EV, the […] were plated on a 96-well plate in cRPMI with addition of 1 mM ATP, with or without 5 μg/ml Concanavalin A (ConA, Sigma-Aldrich). Responder PBMC were incubated with WJ-MSC EV in a total volume of 200 μL medium (n=3 technical replicates per sample). PBMC were incubated with WJ-MSC EV in a 1:10^2, 1:10^3, or 1:10^4 (PBMC:EV) ratio. After 72 hours of incubation, the PBMC were collected and surface stained for CD4 (rat anti-canine CD4-Alexa 647, clone YKIX302.9, AbD Serotec). Cells were stained for 30 minutes, washed twice with cold PBS and 5% FBS, and resuspended in 200 μl PBS and 5% FBS with 5 μl 7AAD (Becton Dickinson) for analysis by flow cytometry (Accuri C6, Becton Dickinson). The effect of WJ-MSC or WJ-MSC EV on CD4-positive (CD4^+) T cell (i.e., T helper cell) proliferation (percentage of cells proliferating, number of divisions for proliferating cells) was measured by evaluating CFSE fluorescence utilizing the FlowJo® proliferation platform (FlowJo, V10, Ashland, Oreg.) after gating on the viable CD4^+ lymphocyte population. […]
Molecule,effect of pre-treating WJ-MSC EV on their suppression of CD4+ T cell division,suppression of mitogen driven T cell division by exogenous TGF-β (5 ng/ml added to ConA stimulated PBMC),suppression of mitogen driven T cell division by exogenous TGF-β (10 ng/ml added to ConA stimulated PBMC),suppression of mitogen driven T cell division by exogenous TGF-β (50 ng/ml added to ConA stimulated PBMC)
B1,reduced,,,
B2,,not,suppressed,suppressed
B3,reduced EV suppression,,,
B4,absent,,,
B5,reduced,,,
